These results are taken from publication PMC4285296, “A complex gene locus enables xyloglucan utilization in the model saprophyte Cellvibrio japonicus” (Molecular Microbiology, 2014).

In one series the target is T1, CjBgl35A (Cellvibrio japonicus, UniProt B3PBE0).
T1 construct: gene bgl35A; native signal peptide (residues 1-36) excluded; recombinant in E. coli; pET-DEST42 construct with C-terminal tag, or modified pET28a construct with N-terminal His6 tag (crystals); model residues 37-575
Kind of series: isothermal titration calorimetry. The format is binding.

In another series the target is T2, CjAfc95A (Cellvibrio japonicus, UniProt B3PBE3).
T2 construct: gene afc95A; full-length (no signal peptide predicted); pET-DEST42 construct with C-terminal tag; recombinant in E. coli BL21(DE3), IMAC purified
T2 sequence (B3PBE3 1-782): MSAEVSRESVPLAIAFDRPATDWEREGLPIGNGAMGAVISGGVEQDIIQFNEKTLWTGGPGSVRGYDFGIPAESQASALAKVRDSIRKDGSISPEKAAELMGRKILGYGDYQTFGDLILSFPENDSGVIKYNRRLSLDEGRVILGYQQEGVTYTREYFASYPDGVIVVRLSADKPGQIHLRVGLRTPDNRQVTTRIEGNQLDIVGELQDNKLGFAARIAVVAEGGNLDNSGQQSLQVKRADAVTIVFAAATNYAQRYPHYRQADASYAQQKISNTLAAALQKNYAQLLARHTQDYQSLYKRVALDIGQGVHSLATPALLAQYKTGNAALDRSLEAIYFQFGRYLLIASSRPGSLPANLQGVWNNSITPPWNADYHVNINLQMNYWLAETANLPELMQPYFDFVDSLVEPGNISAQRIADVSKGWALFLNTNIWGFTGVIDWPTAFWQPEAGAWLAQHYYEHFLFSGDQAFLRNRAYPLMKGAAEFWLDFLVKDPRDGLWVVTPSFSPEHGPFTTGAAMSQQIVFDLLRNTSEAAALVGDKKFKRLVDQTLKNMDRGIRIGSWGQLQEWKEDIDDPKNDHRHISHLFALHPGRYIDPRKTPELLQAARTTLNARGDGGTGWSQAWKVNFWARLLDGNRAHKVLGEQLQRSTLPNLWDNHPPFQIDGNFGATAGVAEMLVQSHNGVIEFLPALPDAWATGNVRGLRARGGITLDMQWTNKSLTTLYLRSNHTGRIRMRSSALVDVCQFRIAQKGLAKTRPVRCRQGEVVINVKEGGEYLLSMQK
Kind of series: HPAEC-PAD, fucose release. The format is biochemical. To be noted: 25 °C; pH optimum 6.5; apparent value, substrate preparation was a two-component mixture of XLFG and XXFG. The text has this: HPAEC-PAD, fucose release on CjAfc95A

Substrate in the series “purified protein”: O=[N+]([O-])c1ccc(O[C@@H]2O[C@H](CO)[C@H](O)[C@H](O)[C@H]2O)cc1
The experiment in a line: purified protein. To be noted: 25 °C, pH optimum 5.5 (acetate).

Substrate in series [1]: C[C@@H]1O[C@@H](Oc2ccc([N+](=O)[O-])cc2Cl)[C@@H](O)[C@H](O)[C@@H]1O
Kind of series: continuous chromogenic assay, 2-chloro-4-nitrophenolate release. To be noted: 25 °C, pH optimum 6.5 (citrate). The format is biochemical, Cellvibrio japonicus. The text has this: continuous chromogenic assay, 2-chloro-4-nitrophenolate release on CjAfc95A

The molecule `OC[C@H]1NC[C@H](O)[C@@H](O)[C@H]1O` [1-deoxygalactonojirimycin, 1,5-Dideoxy-1,5-imino-D-galactitol] came in with a Kd at CjBgl35A of 485 ± 42 nM.
Turning to `C[C@@H]1O[C@@H](O[C@H]2[C@H](O[C@H]3[C@@H](OC[C@H]4O[C@@H](O[C@H]5[C@H](O)[C@@H](O)C(O)O[C@@H]5CO)[C@H](O)[C@@H](O)[C@@H]4O[C@@H]4O[C@H](CO[C@H]5OC[C@@H](O)[C@H](O)[C@H]5O[C@@H]5O[C@H](CO)[C@H](O)[C@H](O)[C@H]5O)[C@@H](O[C@@H]5O[C@H](CO[C@H]6OC[C@@H](O)[C@H](O)[C@H]6O)[C@@H](O)[C@H](O)[C@H]5O)[C@H](O)[C@H]4O)OC[C@@H](O)[C@@H]3O)O[C@H](CO)[C@H](O)[C@@H]2O)[C@@H](O)[C@H](O)[C@@H]1O` (some centres unmarked) [XLFG], the Km at CjAfc95A was found to be 210 ± 17 µM.

B1: CjBgl35A (Cellvibrio japonicus Ueda107) (protein)
chain: APLPELLSNNGKHALMVDGAPYIILGSQTNNSSNYPDALKDVWPSMEKMGANTLSIPVAWEQIEPVEGQFDFSFVDVLLKEARQRKVRLVLLWFATWKNNAPHYAPAWVKLDNARFPRVVKEDGDTLNSLSPLGQNTLAADKKAFVELMKYLAKRDKDHTVIMVQVQNEVGTYGAVRDYSPMAQAVFNAAVPDDLIQKLQLKPGTWSQVFGRDADEFFHAYQIARYCDEVTVAGKAIKNLPMYVNVALRNPFNPGLPGQYSSGGGTDNVLHIWKAAAPNIDLIAPDIYFRDYKTVSKVLELYTRPDNALFVAEIGNDQPFARYLFPTLGKGGIGFSPFGMDDTDYTNYPLGAKVYNDETIEQFAQVYRLVNPMMREWARLSYQGQVWGVAEPLDSTTETQKIWNAEATPEEKEQHKKDRASALTQQLDLGLWDAEVTYGRPMFWVTPPEGNTPAAGGALIAQLDDNEYLVTAYKARVEFKPSQELAGKKFMIERVEEGRFEKGKWVMERVWNGDQTDWGLNFTDRPHLLRVKMASYSVQ
Take B1: in the series “purified protein”, the Km came to 810 ± 50 µM, the kcat worked out at 10.1 s⁻¹ and the kcat/Km stood at 12500 M⁻¹ s⁻¹.

B2: CjAfc95A (Cellvibrio japonicus Ueda107) (protein)
chain: T2 sequence (B3PBE3 1-782)
notes: full-length (no signal peptide predicted); pET-DEST42 construct with C-terminal tag; recombinant in E. coli BL21(DE3), IMAC purified
B2: in series [1], the Km worked out at 2100 ± 200 µM, the kcat worked out at 26.5 ± 1.1 s⁻¹ and the kcat/Km was 12900 M⁻¹ s⁻¹.
